From patent publication US8361965B2, “Recombinant chimeric protein of neutrophil inhibitory factor and hirugen, and pharmaceutical composition thereof” (Lunan Pharmaceutical Group Corporation, priority 2008, dated 2013) come the findings set out here.

Experiment [1] relates to platelet aggregation induced by human thrombin. The experiment can be described thus: antiplatelet aggregation assay (rabbits dosed i.v., thrombin-induced aggregation of PRP). The experiment is classed as in vivo, Japanese Giant Ear White Rabbits. The settings on record: for aggregation ratio, difference: before vs 15 min after. How it is done: Platelet aggregation rate was determined by puncture of the central artery of the ear before administration, and then rabbits were randomly divided into 5 groups (4 in each group) based on the platelet aggregation rate and body weight: (1) negative control group (5.12 mg mannitol/kg), (2) high dose TNHH group (4.0 mg/kg), (3) middle dose TNHH group (2.0 mg/kg), (4) low dose TNHH group (1.0 mg/kg), and (5) positive control group (0.1 mg recombinant hirudin/kg). The rabbits in each group were administered at the dose respectively via intravenous injection from the marginal ear vein. Blood samples were collected at the time of 15 min after administration (timed by stopwatch) by puncture of the central artery of the ear to determine the platelet aggregation rate. The method of platelet aggregation rate determination was described as follows: the blood samples were collected by puncture of the central artery of the ear using silicified syringe. 3.8% anticoagulant sodium citrate solution (blood: anticoagulant=9:1) was used. The sample was centrifuged at 200×g for 8 min, and the supernatant obtained was platelet-rich plasma (PRP); then the remaining part was centrifuged again at 2200×g for 10 min, and the supernatant obtained was platelet-poor plasma (PPP). The platelet in PRP was counted as approximate 4.0×10^5/mm^3. According to Born's turbidimetry, a turbidimetric tube with 200 μl PRP and a small magnetic bar was placed in a platelet aggregation instrument and incubated at 37 for 1 min. After calibrating with PPP, the platelet was induced to aggregate by adding inductive human thrombin (0.76 IU/ml) under stirring. The effect of medicaments on the aggregation of platelet was analyzed using the aggregation curve and the maximum aggregation rate obtained from the instrument. The maximum aggregation rate was calculated according to the formula below: […]

The subject of experiment [2] is leukocyte adhesion. The experiment can be described thus: anti-leukocyte adhesion activity, in vitro comparative analysis. The class given is cell-based.
In experiment [3] the test system is experimental cerebral hematoma in rats. The experiment can be described thus: effects on experimental cerebral hematoma in rats. The class given is in vivo, SD rats. Further details: key to behavioral score: neurologic defect score, full score 11; higher = more severe disorder. To be noted: 2 mg/kg bid caudal vein; for behavioral score: full score 11. How it is done: SD rats were randomly divided into 4 groups (8 animals per group), including model group, NHH group, NIF group and TNHH group. The rats in each group were anesthetized by chloral hydrate, and then 0.1 ml blood was collected by amputation of tail. The rats were fixed in a stereotaxic apparatus. Median incision of scalp was performed and the periosteum was cut open to expose bregma. Subsequently, a small hole with a diameter of 1 mm was perforated for needle insertion of microsyringe fixed on the stereotaxic apparatus with insertion depth of 5.8 mm (i.e to the position of caudate nucleus) at the site which was 1 mm rearward to the bregma and 3 mm left to the midline, and then 0.1 ml autoblood was injected slowly. Neurological functional defect score was immediately evaluated based on the evaluation criterion after the animal got conscious. The animal with behavior score less than 11 was selected in this study. Behavior score evaluation was continuously carried out after the establishment of model till the end of the experiment.
The neurologic function defect score was evaluated at 5 time points of 4 h, 12 h, 24 h, 48 h and 72 h after the model establishment. Changes of brain water content and histopathological observation were performed at 72 h after the model establishment on sacrificed rats.
Corresponding medicaments (2 mg/kg, bid) were administered through the caudal vein to animals with administration volume of 1 ml/100 g in each group after model animal was successfully established (according to the score less than 11 based on the behavior score evaluation), while the model group received physiological saline in the corresponding volume.
The brain was taken out immediately after the sacrifice of animals, and then […] ectocinerea (cortex was removed) at the edge of haematoma was collected. The brain water content was determined using dry and wet method based on the following formula: Brain water content=(wet weight−dry weight)/wet weight×100%
The brain was immediately taken out by decollation at selected time points, and it was sliced up to be 2 mm thick along the coronal section and then fixed in 10% formaldehyde. The slices were stained by regular HE and mounted. Then the pathological changes occurred in pathological region and the neighboring brain tissues were observed.
Evaluation was performed at the time of 4 h, 12 h, 24 h, 48 h and 72 h after surgery. The method was described as follows:
The flection of forelimbs was observed by lifting the rat by its tail. If the forelimbs symmetrically extended toward the floor, the score was 0. While if wrist flection, or elbow inflection, or internal rotation of shoulder, or both elbow inflection and internal rotation of shoulder occurred to forelimbs of the rat on the opposite side of the surgery part, it was evaluated as scores of 1, 2, 3 and 4, respectively.
The animal was placed on flat floor, and then both shoulders were pushed to move towards the opposite side to examine the resistance. If the resistances on both sides were equal and forceful, it was evaluated as 0. While if the resistance decreased slightly, mildly or severely when pushed to the opposite side of the surgery part, it was evaluated as 1, 2 or 3, respectively.
Both forelimbs of the animal were placed on a metal mesh to observe the muscular tension. The rat with equal and forceful muscular tension of both forelimbs was evaluated as 0. In the same way, the rat was evaluated as 1, 2 or 3, respectively with the reduction of muscular tension on the opposite side of the surgery part mentioned above.
The animal tended to keep turning around to one side was evaluated as 1. Based on the evaluation criterion (with full score of 11), the higher the score was evaluated, the more severe the behavior disorder was.

B1: TNHH: recombinant chimeric protein of neutrophil inhibitory factor and hirugen, Met-NIF-GGGGG-FPRPGSGG-Hirugen (SEQ ID NO: 3), expressed in E. coli (protein)
chain: MNEHNLRCPQNGTEMPGFNDSIRLQFLAMHNGYRSKLALGHISITEESESDDDDDFGFLPDFAPRASKMRYLEYDCEAEKSAYMSARNCSDSSSPPEGYDENKYIFENSNNISEAALKAMISWAKEAFNLNKTKEGEGVLYRSNHDISNFANLAWDAREKFGCAVVNCPLGEIDDETNHDGETYATTIHVVCHYPKINKTEGQPIYKVGTPCDDCSEYTKKADNTTSADPVCIPDDGVCFIGSKADYDSKEFYRFRELGGGGGFPRPGSGGNGDFEEIPEEYL
modifications: N-terminal Met
Turning to B1, the “aggregation ratio, Before administration” value in experiment [1] (TNHH 1.0 mg/kg group) was 57.19 ± 4.42%; in experiment [1] (TNHH 2.0 mg/kg group), 59.62 ± 7.22%; in experiment [1] (TNHH 4.0 mg/kg group), 59.23 ± 6.30%. Moreover, the “aggregation ratio, 15 min after administration” value in experiment [1] (TNHH 1.0 mg/kg i.v.) stood at 36.27 ± 12.13%; in experiment [1] (TNHH 2.0 mg/kg i.v.), 19.33 ± 10.25%; in experiment [1] (TNHH 4.0 mg/kg i.v.), 9.22 ± 4.51%. Moreover, the “aggregation ratio, difference” value in experiment [1] (TNHH 1.0 mg/kg i.v.) amounted to 20.82 ± 7.98 %; in experiment [1] (TNHH 2.0 mg/kg i.v.), 30.30 ± 9.92 %; in experiment [1] (TNHH 4.0 mg/kg i.v.), 50.92 ± 4.33 %. Further, the “titer against leukocyte adhesion” value in experiment [2] (TNHH 1.0 mg/ml) was 720 unit/ml. The molecule also showed an anti-leukocyte adhesion activity in experiment [2] (in vitro) of 750 Unit/mg. Moreover, the behavioral score amounted to 2.00 ± 1.07 in experiment [3] (4 h); 2.00 ± 0.76 in experiment [3] (12 h); 2.25 ± 0.46 in experiment [3] (24 h); 2.12 ± 0.64 in experiment [3] (48 h); 2.88 ± 1.46 in experiment [3] (72 h). In addition, the “Brain water content (%)” value in experiment [3] (72 h, dry and wet method) is recorded as 78.28 ± 1.97 %.
